For 2 substances, EC50 of GLP-1R activation (460/530 ratio, GeneBLAzer GLP-1R-CRE-bla CHO-K1 reporter cells) results are on record in patent US20260174822A1.

The target of the experiment is GLP-1R on GeneBLAzer GLP-1R-CRE-bla CHO-K1 cells. The experiment can be described thus: cell-based or functional assay.

For the substance GLP-1-His protein (peptide), the EC50 of GLP-1R activation (460/530 ratio, GeneBLAzer GLP-1R-CRE-bla CHO-K1 reporter cells) was found to be 192 nM.
To GLP-1-RFRS-His protein (peptide) belongs 35.9 nM.
